The values that follow come from the nanobody polyreactivity screen of Harvey et al. (2022).

The data set can be described thus: yeast display, Sf9 membrane polyspecificity reagent, FACS + sequencing; frameworks hold sequencing errors. The method in brief: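 Galactose-induced (36–48 hours) yeast carrying a synthetic nanobody display library were exposed to 10% biotinylated, detergent-solubilized Sf9 membrane reagent at 4 °C for 1 hour. FACS followed streptavidin microbead enrichment, using low and high (top ~1%) gates for expression (anti-HA) and reagent binding (streptavidin). Colony PCR, MiSeq 2 × 250 sequencing and CDR-length filtering followed. Labels for polyreactivity reflect the gate of origin.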
In the case of “QVQLVESGGGLVQAGGSLRLSCAASGSIFPSNAMGWYRQAPGKERELVATIGRGGTTNYADSVKGRFTISRDNAKNTVYLQMNSLKPEDTAVYYCNAERIWRYKYGYDYWGQGTQVTVSS”, the “polyreactivity (PSR sort gate)” value is “high polyreactivity”. As for “QVQLVESGGGLVQAGGSLRLSCAASGSIFPSYAMGWYRQAPGKERELVAAISVSGGSTYYADSVKGRFTISRDTAKNTVYLQMNSLKPEDTAVYYCAAQHGYPRYYYWGQGTQVTVSS”, the “polyreactivity (PSR sort gate)” value is “high polyreactivity”. For the sequence “QVQLVESGGGLVQAGGSLRLSCAASGSIFPTNAMGWYRQAPGKERELVAAITGNGGRTYYADSVKGRFTISRDNAKNTVYLQMNSLKPEDTAVYYCAALTYASNRYGYWGQGTQVTVSS”, the “polyreactivity (PSR sort gate)” value was “high polyreactivity”.

Turning to “QVQLVESGGGLVQAGGSLRLSCAASGSIFPVNTMGWYRQAPGKERELVAAITQRGGRTYYADSVKGRFTISRDNAKNTVYLQMNSLKPEDTAVYYCNRDLGAGGYDYWGQGTQVTVSS”, the “polyreactivity (PSR sort gate)” value is given as “low polyreactivity”.

With “QVQLVESGGGLVQAGGSLRLSCAASGSIFPVYAMGWYRQAPGKDRELDATITDGGGDTYYADSVMGRFTISRDNAKNTVYLQMNSLKPEDTAVLYCAARSIPEWSAYWYDYWGQGTQVTVSS”, the “polyreactivity (PSR sort gate)” value is “low polyreactivity”. For the sequence “QVQLVESGGGLVQAGGSLRLSCAASGSIFPVYAMGWYRQAPGKERELVAAISLRAGNTYYADSVKGRFTISRDNAKNTVYLQMNSLKPEDTAVYYCAVEWFRSTTIFDYWGQGTQVTVSS”, the “polyreactivity (PSR sort gate)” value was “high polyreactivity”. In the case of “QVQLVESGGGLVQAGGSLRLSCAASGSIFPWNTMGWYRQAPGKERELVARISTSGASTYYADSVKGRFTISRDNAKNTVYLQMNSLKPEDTAVYYCAARKRPFYKYDYWGQGTQVTVSS”, the “polyreactivity (PSR sort gate)” value is “high polyreactivity”. With “QVQLVESGGGLVQAGGSLRLSCAASGSIFPWYAMGWYRQAPGKERELVAAITISGGSTHYADSVKGRFTISRDNAKNTVYLQMNSLKPEDTAVYYCATPRYPSYEYWGQGTQVTVSS” the entry was “low polyreactivity”; with “QVQLVESGGGLVQAGGSLRLSCAASGSIFPYAMGWYRQAPGKERELVAAITSGVRTNYADSVKGRFTISRDNAKNTVYLQIYSLKPEDTAVYYCAARYFPHYYSKYDYWGQGTQVTVSS”, “low polyreactivity”; with “QVQLVESGGGLVQAGGSLRLSCAASGSIFPYNAMGWYRQAPGKERELVAAITSSGGRTYYADSVKGRFTISRDNAKNTVYLQMNSLKPEDTAVYYCAVEANYHTYWLYYWGQGTQVTVSS”, “high polyreactivity”. As to “QVQLVESGGGLVQAGGSLRLSCAASGSIFPYNAMGWYRQAPGKERQLVARISWSGGSTYYADSVKGRFTISRDNAKNTVYLQMNSLKPEDTAVYYCAATIIFDAQYRFYYWGQGTQVTVSS”, the “polyreactivity (PSR sort gate)” value was “low polyreactivity”. Turning to “QVQLVESGGGLVQAGGSLRLSCAASGSIFPYNAMGWYRQPPGKERELVATISSGGSTNYADSVKGRFTISRDNAKNTVYLQMNSLKPEDTAVFYCAADVIVFYYAPNYWGDIEYGYWGQGTQVTVSS”, the “polyreactivity (PSR sort gate)” value was “low polyreactivity”. In the case of “QVQLVESGGGLVQAGGSLRLSCAASGSIFPYNVMGWYRQAPGKERELVAAISTRGGRTYYADSVKGRFTISRDNAKNTVYLQMNSLKPEDTAVYYCATAGGPYSASGYYWGQGTQVTVSS” it was “high polyreactivity”; in that of “QVQLVESGGGLVQAGGSLRLSCAASGSIFPYYAMGWYRPAPGKERELVASINQSDGTTYYADSVKGRFTISRDNAKNTVYLQMNRLKPEDTAVSYCAADTTLQDFIRYRPMGSYDSWGQGTQVTVSS”, “low polyreactivity”; in that of “QVQLVESGGGLVQAGGSLRLSCAASGSIFPYYAMGWYRQAPGKERELVARITWRSTSTYADSVKGRFTISRDNAKNTVYLQMNSLKPEDTAVYYCAVRLLSTYIIEYDHWGQGTQVTVSS”, “low polyreactivity”. In the case of “QVQLVESGGGLVQAGGSLRLSCAASGSIFPYYTMGGYRQAPGKERELVAVISSGGSTNYAVSVKGRFTISRDNAKNTVYLQMNSLKPEDTAVYYCNARRYWLRYDYWGLGTQVTVSS”, the “polyreactivity (PSR sort gate)” value is reported as “low polyreactivity”. In the case of “QVQLVESGGGLVQAGGSLRLSCAASGSIFPYYTMGWYRQAPGKERELVAAISGSGTSTYYADSVKGRFTISRDNAKNTVYLQMISLKPEDTAVYYCAKRFRYGYVNYYYWGQGTQVTVSS”, the “polyreactivity (PSR sort gate)” value was “low polyreactivity”. In the case of “QVQLVESGGGLVQAGGSLRLSCAASGSIFQGYALGWYRQAPGKERELVAAITASGGSTYYADSVKGRFTISRDNAKNTVYLQMNSLKPEDTAVYYCATDSYWRQDLYRYEYWGQGTQVTVSS” it was “high polyreactivity”; in that of “QVQLVESGGGLVQAGGSLRLSCAASGSIFQGYAMGWYRQAPGKERELVAGITSSGGSTHYADSVKGRFTISRDNAKNTVYLQMNSLKPEDTAVYDYWGQGTQVTVSS”, “low polyreactivity”.

Turning to “QVQLVESGGGLVQAGGSLRLSCAASGSIFQHYAMGLYRQAPGKERELVAAISYDTTSTYYADSVKGRFTISRDNAKNTVYLQMNSLKPEDTAVYYCNTYPEVYGPFQYDYWGQGTQVTVSS”, the “polyreactivity (PSR sort gate)” value is on record as “low polyreactivity”. Turning to “QVQLVESGGGLVQAGGSLRLSCAASGSIFQINAMGWYRPAPGKERECVASITYSGGSTYYADSVKGRFTISRDNAKNTVYLQMNSLKPEDTAVYYCAAESYWGYDYWGQGTQVTVSS”, the “polyreactivity (PSR sort gate)” value is recorded as “high polyreactivity”. For the sequence “QVQLVESGGGLVQAGGSLRLSCAASGSIFQINVMGWYRQAPGKERELVAASYADSVKGRFTISRDNAKNTVYLQMNSLKPEDTAVYYCARSNPAYSIYDYWGQGTQVTVSS”, the “polyreactivity (PSR sort gate)” value is “low polyreactivity”. In the case of “QVQLVESGGGLVQAGGSLRLSCAASGSIFQINVMGWYRQAPGKERELVAASYADSVKGRFTISRDNAKNTVYVQMNSLKPEDTAVYYCARTNPAYSIYDYWGQGTQVTVSS”, the “polyreactivity (PSR sort gate)” value was “low polyreactivity”. As to “QVQLVESGGGLVQAGGSLRLSCAASGSIFQKNAMGWYRQAPGKERELVATIRWSGGRTYYADSVKGRFTISRDNAKNTVYLQMNSLKPEDTAVYYCNAGYKGDYDYWGQGTQVTVSS”, the “polyreactivity (PSR sort gate)” value is “high polyreactivity”. “QVQLVESGGGLVQAGGSLRLSCAASGSIFQNYAMGWYRQAPGKERELVAAINDDSTYYADSVKGRFTISRDNAKNTVYLQMNSLKPEDTAVYYCNAEDYVTLKIDLSWPYGYWGQGTQVTVSS”: the “polyreactivity (PSR sort gate)” value was “low polyreactivity”. As to “QVQLVESGGGLVQAGGSLRLSCAASGSIFQRNAMGWYRQAPGKERELVAAISRSGGRTYYADSVKGRFTISRDNAKNTVYLQMNILKPEDTAVYYCAADSPYIQNRFEYWGQGTQVTVSS”, the “polyreactivity (PSR sort gate)” value is listed as “high polyreactivity”. Take “QVQLVESGGGLVQAGGSLRLSCAASGSIFQRYAMGWYRQAPGKEREFVAAISGRGGSTYYADSVKGRFTISRDNAKNTVYLQMNSLKPEDTAVYYCAVRGRSYVRTYDYWGQGTQVTVSS”: the “polyreactivity (PSR sort gate)” value is given as “high polyreactivity”. Take “QVQLVESGGGLVQAGGSLRLSCAASGSIFQSNAMGWDRQAPGKERELVAAISSSGVRTYYADSVKGRFTISRDNAKNTVYLQMNSLKPEDTAVYYCATGWYYAGGPTYEYYYWGQGTQVTVSS”: the “polyreactivity (PSR sort gate)” value is “low polyreactivity”. “QVQLVESGGGLVQAGGSLRLSCAASGSIFQSNAMGWYRQPPGKERELVAAISSSGVRTYYADSVKGRFTISRDNAKNTVYLQMNSLKPEDTAVYFCATGWYYAGGPTYEYYYWGQGTQVTVSS”: the “polyreactivity (PSR sort gate)” value is listed as “low polyreactivity”.

With “QVQLVESGGGLVQAGGSLRLSCAASGSIFQSYAMGWYRQAPGKERELVAAITERGGSTYYADSVKGRFTISRDTAKNTVYLQMNSLKPEDTAVYYCAADIYYWWCLSDLYTPTEGDYWGQGTQVTVSS”, the “polyreactivity (PSR sort gate)” value is “low polyreactivity”.

Take “QVQLVESGGGLVQAGGSLRLSCAASGSIFQVYAMGWYRQAPGKERELVAAISGGGSSTYYADSVKGRFTISRDNAKNTVYLQMNSLKPEDTAVYYCAAAYSWYDNNRYDYWGQGTQVTVSS”: the “polyreactivity (PSR sort gate)” value was “low polyreactivity”. Turning to “QVQLVESGGGLVQAGGSLRLSCAASGSIFQVYSMGWYRQAPGKEREFVAAISFSGGGTYYADSVKGRFTISRDNAKNTVYLQMNSMKPEDTAVYYCAADVSGWEYDYWGQGTQVTVSS”, the “polyreactivity (PSR sort gate)” value is reported as “low polyreactivity”. As for “QVQLVESGGGLVQAGGSLRLSCAASGSIFQYNTMGWYRQAPGKERELVAAINWSGVSTYYADSVKGRFTISRDNAKNTVYLQMNILKPEDTAVYYCNARRYVDGSYIYDRGYWGQGTQVTVSS”, the “polyreactivity (PSR sort gate)” value is listed as “high polyreactivity”. Consider “QVQLVESGGGLVQAGGSLRLSCAASGSIFQYNVKGWYIQAPGTERELVAAITSGGSTYYADSVKGRFTISRDNAKNTVYLQMNSLKPEDTAVYYCARDIRRKGFRYDYWGQGTQVTVSS”, for which the “polyreactivity (PSR sort gate)” value is given as “high polyreactivity”.

In the case of “QVQLVESGGGLVQAGGSLRLSCAASGSIFQYYAMGWYRQAAGKERELVAAISGSGGRTYYADSVKGRFTISRDNAKNTVYLQMNSLKPEDTAVYYCNTVWWKQYNYWGQGTQVTVSS”, the “polyreactivity (PSR sort gate)” value is reported as “high polyreactivity”. In the case of “QVQLVESGGGLVQAGGSLRLSCAASGSIFQYYGMGWYRQAPGKERELVASISRSGGSTYYADSVKGRFTISRDNAKNTVYLQMNSLKPEDTAVYYCNKRTYRQLSSWDYTYYYWGQGTQVTVSS” it was “low polyreactivity”. As for “QVQLVESGGGLVQAGGSLRLSCAASGSIFQYYVMGWYRQAPGKERELDAAIRRSGTTYYADSVKGRFTISRDNAKNTVYLQMNSLKPEDTAVDYCNADSIYYYYLIEYEYWGQGSQVTVSS”, the “polyreactivity (PSR sort gate)” value is “low polyreactivity”. For “QVQLVESGGGLVQAGGSLRLSCAASGSIFRANAMGWYRQAPGKEREMVAAISYSGGSTYYADSVKGRFSISRDNAKNTVYLLMNSLKPEDTAVYYCAAEFLYASVYYSYWGQGTQVTVSS”, the “polyreactivity (PSR sort gate)” value is “high polyreactivity”. In the case of “QVQLVESGGGLVQAGGSLRLSCAASGSIFRAYAMGWYRQAPGKEGELVATITSGGRTNYADSVKGRFTISRDNAKNTVYLQMNSLKPEDTAVYYCNADHWLYYGAGYDYWGQGTQVTVSS” it was “low polyreactivity”; in that of “QVQLVESGGGLVQAGGSLRLSCAASGSIFRDNGMGWYRQAPGKERELVAAINSGDSTYYADSVKGRFTISRDNAKNTVYLQMNSLKPEDTAVYYCNADDRRALSQRQYDWYDYWGQGTQVTVSS”, “low polyreactivity”; in that of “QVQLVESGGGLVQAGGSLRLSCAASGSIFRDYVMGWYRQAPGKERELVAAISGNDGSTYYADSVKGRFTISRDNAKNTVYLQMNSLKPEDTAVYYCNADEASTVPLFYSYLDFDYWGQGTQVTVSS”, “low polyreactivity”.
